These results are taken from the supplement of paper PMC10567573.

± gives the standard deviation.

This data set can be described thus: protein stability index of a GFP-peptide fusion (GPS, HEK-293T) (PSI 1-6); higher = more stable. The conditions noted are these: c terminus: a fixed tail appended.
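Also: 24-mer peptide tiles fused after GFP, lentivirally expressed, FACS-sorted into six equal bins by GFP/DsRed ratio, decoded by Illumina sequencing, PSI is the read-weighted mean bin number.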

As for THSRMGSIMSTGIVQGSSGAQGSG [CARM1], the protein stability index amounted to 4.48 ± 0.1 (treatment: DMSO) and 4.26 ± 0.34 (treatment: MLN4924 1 uM, 8 h).

Consider THWAVGVCRDSVSRKGELTPLPET [TRIM39], for which the protein stability index stood at 2.96 ± 0.19 (treatment: DMSO) and 2.95 ± 0.23 (treatment: MLN4924 1 uM, 8 h).

For the sequence TIFSASNYYEVGSNRGAYVKLGPA [PPEF2], the protein stability index turned out to be 2.39 ± 0.5 (treatment: DMSO) and 2.66 ± 0.3 (treatment: MLN4924 1 uM, 8 h).

In the case of TIVSCTPVHLVDKLPLPSTLRSHL [RAB40A], the protein stability index is, setting by setting: (treatment: DMSO) 2.32 ± 0.091; (treatment: MLN4924 1 uM, 8 h) 2.28 ± 0.15.

Take TKCEYMLNSMPKRLCLVCGDIASG [ESRRG]: the protein stability index stood at 2.32 ± 0.29 (treatment: DMSO) and 2.13 ± 0.12 (treatment: MLN4924 1 uM, 8 h).

With TKSHIMLVQRQMSVIEEDLEEFQL [NECAB1], the protein stability index was 3.22 ± 0.21 (treatment: DMSO) and 3.12 ± 0.21 (treatment: MLN4924 1 uM, 8 h).

As for TLCDVTLRVEQKDFPAHRIVLAAC [KLHL12], the protein stability index came to 2.21 ± 0.52 (treatment: DMSO) and 1.83 ± 0.53 (treatment: MLN4924 1 uM, 8 h).

TLDPNGKTCSRVDHCAQQDHGCEQ [MATN2]: the protein stability index (treatment: DMSO) was determined as 4.03 ± 0.25 and the protein stability index (treatment: MLN4924 1 uM, 8 h) worked out at 4.16 ± 0.22.

For TLGREVMSPLQAMSSYTVAGRNVL [NLN], the protein stability index by setting is: (treatment: DMSO) 3.1 ± 0.2; (treatment: MLN4924 1 uM, 8 h) 3.01 ± 0.34.

TLMEEVLLLGLKDREGYTSFWNDC [GOLPH3]: the protein stability index reads like this: (treatment: DMSO) 2.71 ± 0.58; (treatment: MLN4924 1 uM, 8 h) 2.72 ± 0.69.

Take TLRGTGATADFADVADDFENYHKL [NETO1]: the protein stability index by setting is: (treatment: DMSO) 4.4 ± 0.22; (treatment: MLN4924 1 uM, 8 h) 4.49 ± 0.084.

As to TLVGCWSDVVGRRSSLLACILLSA [MFSD9], the protein stability index is, setting by setting: (treatment: DMSO) 2.84 ± 0.38; (treatment: MLN4924 1 uM, 8 h) 2.71 ± 0.4.

For the sequence TMGLRHLPVVNAVGEIVGIITRHN [CLCN6], the protein stability index reads like this: (treatment: DMSO) 2.47 ± 0.19; (treatment: MLN4924 1 uM, 8 h) 2.41 ± 0.12.

For the sequence TNNGAGFGLSILWVLLFTPCSFVC [SCAMP3], the protein stability index is 3.04 ± 0.37 (treatment: DMSO) and 3.27 ± 0.36 (treatment: MLN4924 1 uM, 8 h).

With TNVESQLAEIRSDLERQNQEYQVL [KRT33B], the protein stability index is 4.52 ± 0.26 (treatment: DMSO) and 4.56 ± 0.25 (treatment: MLN4924 1 uM, 8 h).

In the case of TPEELEEEIPVVICAAAGRMGATM [GLT8D2], the protein stability index (treatment: DMSO) was found to be 4.25 ± 0.26 and the protein stability index (treatment: MLN4924 1 uM, 8 h) worked out at 4.29 ± 0.21.

Consider TPMTIPEFFRESVNRFGTYPALAS [ACSBG2], for which the protein stability index runs as follows: (treatment: DMSO) 2.6 ± 0.41; (treatment: MLN4924 1 uM, 8 h) 2.78 ± 0.14.

Consider TQYVRHSSDPFYTPEPDTCHELLG [TPH1], for which the protein stability index reads like this: (treatment: DMSO) 3.63 ± 0.35; (treatment: MLN4924 1 uM, 8 h) 4 ± 0.32.

As for TRGFLRSPSSDLDTDAEGDDFELL [RETREG3], the protein stability index runs as follows: (treatment: DMSO) 5.24 ± 0.17; (treatment: MLN4924 1 uM, 8 h) 5.29 ± 0.2.

Take TSAITASRSESPPPLSDPKQAKVV [BRD3]: the protein stability index runs as follows: (treatment: DMSO) 5.24 ± 0.22; (treatment: MLN4924 1 uM, 8 h) 5.21 ± 0.077.

As for TSTFEATSEGTLELQQRNPKAERL [ZNF232], the protein stability index by setting is: (treatment: DMSO) 5.2 ± 0.2; (treatment: MLN4924 1 uM, 8 h) 5.42 ± 0.14.

In the case of TSTRYEQPKCDNTARAHPAKARDL [SMOC2], the protein stability index is, setting by setting: (treatment: DMSO) 4.85 ± 0.19; (treatment: MLN4924 1 uM, 8 h) 5.17 ± 0.27.

For TSTSSSITSSIPDTERLDDFHLSI [DVL3], the protein stability index reads like this: (treatment: DMSO) 3.84 ± 0.27; (treatment: MLN4924 1 uM, 8 h) 3.96 ± 0.23.

For TTTDHSSNPGPVPGSSSGPVLGSS [SPAG8], the protein stability index by setting is: (treatment: DMSO) 5.08 ± 0.16; (treatment: MLN4924 1 uM, 8 h) 5.13 ± 0.09.

As for TVDGLHFNSTYNARVKAFNKTGVS [TRIM9], the protein stability index was 3.17 ± 0.19 (treatment: DMSO) and 3.46 ± 0.086 (treatment: MLN4924 1 uM, 8 h).

Regarding TVDKQNISLWPREPPPKSGPSLVP [CD207], the protein stability index amounted to 3.84 ± 0.21 (treatment: DMSO) and 3.73 ± 0.082 (treatment: MLN4924 1 uM, 8 h).

With TVGFLDEAIQPYRDRLRSRLEALS [TRIM15], the protein stability index is 2.66 ± 0.27 (treatment: DMSO) and 2.77 ± 0.39 (treatment: MLN4924 1 uM, 8 h).

For the sequence TVRAMTHVINQGMAMYWGTSRWSS [KCNAB2], the protein stability index was 2.91 ± 0.42 (treatment: DMSO) and 2.75 ± 0.51 (treatment: MLN4924 1 uM, 8 h).

For TYIPENNARGASIFSVTALDPDSK [PCDHGA10], the protein stability index came out at 4.49 ± 0.17 (treatment: DMSO) and 4.62 ± 0.15 (treatment: MLN4924 1 uM, 8 h).

In the case of TYTHGLGLHRRPGAGHCSASPGPA, the protein stability index reads like this: (treatment: DMSO) 3.42 ± 0.24; (treatment: MLN4924 1 uM, 8 h) 3.48 ± 0.24.

Turning to VAGGLVACRVTELQQQPLCTSVNT [LRRC59], the protein stability index reads like this: (treatment: DMSO) 2.39 ± 0.5; (treatment: MLN4924 1 uM, 8 h) 2.59 ± 0.18.

Take VAGSLAGAIAQSSIYPMEVLKTRM [SLC25A25]: the protein stability index is, setting by setting: (treatment: DMSO) 2.56 ± 0.11; (treatment: MLN4924 1 uM, 8 h) 2.54 ± 0.32.

For VAGTMESPFSPGLFHRLDEDWDSA [ATF6], the protein stability index worked out at 4.38 ± 0.11 (treatment: DMSO) and 4.32 ± 0.2 (treatment: MLN4924 1 uM, 8 h).

As for VAKRKSSMPQKFLGDKGLSDTPYD [IKZF1], the protein stability index (treatment: DMSO) turned out to be 4.22 ± 0.1 and the protein stability index (treatment: MLN4924 1 uM, 8 h) stood at 4.38 ± 0.16.

Regarding VARVLRGCLENMPEADCIPKEQLS [PLK2], the protein stability index by setting is: (treatment: DMSO) 3.42 ± 0.26; (treatment: MLN4924 1 uM, 8 h) 3.62 ± 0.13.

Regarding VASMVLGECRQMSSSSQIGNDSFQ [CLCN6], the protein stability index stood at 2.87 ± 0.32 (treatment: DMSO) and 2.67 ± 0.27 (treatment: MLN4924 1 uM, 8 h).

In the case of VCAICQINLEGKTFYSKKDRPLCK [PDLIM7], the protein stability index runs as follows: (treatment: DMSO) 2.1 ± 0.44; (treatment: MLN4924 1 uM, 8 h) 2.42 ± 0.5.

On to VDIVTGHARLSDIWAKTPPITRKA [DHCR7], for which the protein stability index runs as follows: (treatment: DMSO) 3.26 ± 0.093; (treatment: MLN4924 1 uM, 8 h) 3.38 ± 0.16.

In the case of VDNARIVLQIDNARLAADDFRVKY [KRT18], the protein stability index was 2.58 ± 0.31 (treatment: DMSO) and 2.77 ± 0.21 (treatment: MLN4924 1 uM, 8 h).

Regarding VDSEQLRRDCDALMAGCIQEARER [CDKN1A], the protein stability index was 4.82 ± 0.15 (treatment: DMSO) and 4.7 ± 0.28 (treatment: MLN4924 1 uM, 8 h).

VEEVDMAEEFEQPTLSCEKYLTYD [ELOA2] gave a protein stability index (treatment: DMSO) of 5.09 ± 0.32 and a protein stability index (treatment: MLN4924 1 uM, 8 h) of 5.19 ± 0.39.

VELIPEKKGLFLKHVEYEVSSQRF [SNX8] yielded a protein stability index (treatment: DMSO) of 2.31 ± 0.27 and a protein stability index (treatment: MLN4924 1 uM, 8 h) of 2.46 ± 0.19.

As for VELVNAACNFEPHESFFSLFSDPR [ZER1], the protein stability index stood at 2.45 ± 0.13 (treatment: DMSO) and 2.54 ± 0.2 (treatment: MLN4924 1 uM, 8 h).

As for VENECYQVFLDRINRADYCPECYP [TOR1AIP2], the protein stability index stood at 2.43 ± 0.42 (treatment: DMSO) and 2.62 ± 0.27 (treatment: MLN4924 1 uM, 8 h).

VERYHNLCQKQVKAQLPRRESERR [FBXO28]: the protein stability index by setting is: (treatment: DMSO) 4.08 ± 0.31; (treatment: MLN4924 1 uM, 8 h) 3.99 ± 0.08.

Regarding VEVMDETNCQKVLNMWCCCFFKRR [CSNK1G3], the protein stability index was found to be 3.21 ± 0.38 (treatment: DMSO) and 3.15 ± 0.39 (treatment: MLN4924 1 uM, 8 h).

VEYKDIASIHWDWKIALLFVAFAL [SLC35F2]: the protein stability index by setting is: (treatment: DMSO) 2.81 ± 0.8; (treatment: MLN4924 1 uM, 8 h) 2.74 ± 0.32.

With VFMEFGPPNQQMSPSPMSHGHYSM [DLX1], the protein stability index runs as follows: (treatment: DMSO) 2.21 ± 0.1; (treatment: MLN4924 1 uM, 8 h) 2.24 ± 0.23.

As for VGDLMSPFDQSGLGAEESLGLLDD [ATF4], the protein stability index runs as follows: (treatment: DMSO) 5.17 ± 0.27; (treatment: MLN4924 1 uM, 8 h) 4.89 ± 0.28.

VGGATPDQTTSEETVGGAILDQTT [HDAC6]: the protein stability index runs as follows: (treatment: DMSO) 5.48 ± 0.49; (treatment: MLN4924 1 uM, 8 h) 5.43 ± 0.35.

As to VGKTRLICARACNTTLTQYQLLAT [RHOBTB1], the protein stability index turned out to be 2.18 ± 0.35 (treatment: DMSO) and 2.21 ± 0.12 (treatment: MLN4924 1 uM, 8 h).

VGRTEPELLVAHAYTRYLGDLSGG [HMOX1]: the protein stability index (treatment: DMSO) worked out at 2.68 ± 0.16 and the protein stability index (treatment: MLN4924 1 uM, 8 h) was 2.48 ± 0.08.

As for VHPFVNYNSSRFGEGVERELFVRE [MYORG], the protein stability index came out at 3.09 ± 0.18 (treatment: DMSO) and 3 ± 0.37 (treatment: MLN4924 1 uM, 8 h).
